{
  "source": "patent US8410045B2",
  "about": "“Camptothecin-peptide conjugates and pharmaceutical compositions containing the same” (Drais Pharmaceuticals, Inc., priority 2006, dated 2013)",
  "key": {"HT-29 tumors": {"test_system": "HT-29 tumors", "experiment": "Combination of DPV1047-BCH-SN38 with 5-FU or bevacizumab in the HT-29 tumor model", "settings": "i.v."}, "[1]": {"test_system": "MDA-MB-231 mammary carcinoma", "experiment": "Antitumor efficacy in MDA-MB-231 mammary carcinoma model in nude mice", "type": "in vivo", "settings": "Table 7, i.v. Q2D3 × 3 W"}, "[2]": {"experiment": "Stability of conjugates in citrated plasma at 37° C. (half life time, HPLC fluorescence)", "type": "in vitro ADME", "settings": "DPV1047-linker-SN38, 2.55 μM", "procedure": "The stability of the conjugates was tested in citrated plasma (10% (v/v) sodium citrate buffer, 0.106M) from different species (see Table 1 below). The conjugates at 2.55 μM were incubated at 37° C. in plasma. Samples were analysed using the HPLC fluorescence method described below (see chromatographic equipment and conditions) following TFA/acetonitrile extraction and the amount of free camptothecin, analogs or derivatives thereof (e.g. SN38) released by the conjugates was measured.\nChromatographic equipment and conditions: 150 μL of each sample were placed in 1.5 mL micro-centrifuge tubes. 450 μL of 5% (v/v) TFA in H2O was added to each tube and the mixture was vortexed for 5 seconds. Samples were then centrifuged at 16000 g, 3 minutes at +4° C. 100 μL of supernatant were placed in 1.5 mL micro-centrifuge tubes. Methanol (100 μL) was then immediately added and vortexed for 5 seconds. Samples were then centrifuged at 16000 g, 3 minutes at room temperature. 150 μL of supernatant were recovered for HPLC analysis. Conjugates, metabolites and camptothecin derivative (i.e. SN38) were separated by high-performance liquid chromatography (HPLC; Agilent 1100 series equipped with a fluorescence detector) using a 4.6×100 mm ([…] particle size) Luna C18(2) column (Phenomenex ref. 00D-4251-E0, Le Pecq, France). The aqueous component of the mobile phase (A) was 0.1% (v/v) TFA in water. The organic modifier (B) was acetonitrile containing 0.1% (v/v) TFA. For the conjugate and its metabolites an elution gradient increasing linearly the proportion of B from 15 to 37% in 2 min, from 37 to 47% in 6 min, followed by 2 min at 90% was applied with a constant flow rate of 1.2 mL/min. The proportion of B was then returned to the initial condition for 3.0 min.\nThe half life time of conjugate corresponds to the time necessary to have 50% by mole of free camptothecin, analogs or derivatives thereof released by the conjugates of the invention. In human plasma, the half life time of conjugate DPV1047-linker #1-SN38 (less than 5 mins) was shorter than that of conjugate DPV1047-linker #2-SN38 (6-7 mins), which, in turn, was shorter than that of conjugate DPV1047-linker #3-SN38 (12 mins)."}, "[3]": {"experiment": "Toxicity study in the beagle dog following intravenous infusion", "settings": "for Reduction in WBC at D5 (%) / Toxic signs Day 1 / Toxic signs Following Days: i.v. infusion", "procedure": "Adult female and male beagle dogs were individually housed with free access to tap water. A pellet diet was distributed daily.\nDogs (1 dog for each drug and dose) were infused intravenously through the cephalic or saphenous vein. These intravenous infusions were made using a single-use catheter (Intraflon®) and a plastic syringe connected to a syringe pump. During the injection, the animals were restrained in a hammock.\nConjugates were dissolved in water for injection (10% of final volume) and diluted with 0.9% NaCl to their final concentration. The volume administered to each animal was adjusted according to body weight.\nClinical signs, hematological and intestinal toxicities were monitored during a period of 15 days after infusion. Each animal was checked at least twice a day for mortality or signs of morbidity.\nThe body weight of each animal was recorded on the day −1, 4, 10 and 13.\nPeripheral blood samples were taken into EDTA tubes for the determination of following parameters on days −1, 5, 11 and 14: erythrocytes, hemoglobin, mean cell volume, packed cell volume, mean cell hemoglobin concentration, mean cell hemoglobin, thrombocytes, leucocytes, differential white cell count with cell morphology."}, "[4]": {"test_system": "LS 174T human colorectal carcinoma tumor", "experiment": "Antitumor efficacy in human LS 174T xenograft colon tumor model implanted in nude rats", "type": "in vivo", "procedure": "The LS 174T study was performed using female nude rats (8 weeks old) purchased from Harlan breeding center (Gannat, France). LS 174T tumors were established by a subcutaneously implantation of cell (ATCC Number: CCl-188) suspensions in the right flank of the animals. The first injection of drugs was performed when the tumors reached a size of about 1000 mm^3. The tumor volume was calculated using the following formula: [length×width^2]/2."}, "[5]": {"experiment": "Stability of conjugates in citrated plasma at 37° C. (half life time, HPLC fluorescence)", "type": "in vitro ADME, human", "settings": "for half-life: human, plasma", "how_it_was_run": "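Conjugates at 2.55 μM incubated at 37° C in citrated plasma of several species, including human and dog. After TFA/acid extraction, released free camptothecin derivative (e.g. SN38) measured by reversed-phase C18 HPLC with fluorescence detection; half-life taken as time to 50 mol% release.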"}, "[6]": {"test_system": "NCI-H460 human epithelial lung carcinoma cells", "experiment": "In vitro cytotoxicity (WST-1 cell viability)", "type": "cell-based", "settings": "24 h"}, "[7]": {"test_system": "HT-29 colorectal carcinoma", "experiment": "Antitumor efficacy in HT-29 colorectal carcinoma model in nude mice", "type": "in vivo", "settings": "Table 7"}, "[8]": {"settings": "Table 4, 20 (cumulative 100) μmol/kg, i.v. bolus, Q3/4Dx5"}, "[9]": {"settings": "Table 7, i.v. Q4D × 5, 10 μmol/kg"}, "[10]": {"settings": "Table 7, i.v. Q4D × 5, 20 μmol/kg"}},
  "note": "pIC50: −log10 of the molar value. Several values for one entry are separate records, joined by “and”; a condition that tells them apart may be missing. Equal values may be shown once. Read-outs that look alike come from different tables or passages of the source. Marks after values point to notes of the source that are not given here.",
  "data": [
    {"compound": "CCc1c2c(nc3ccc(OC(=O)[C@H]4CC[C@H](CNC(=O)C5CCC(CN6C(=O)CC(SC[C@H](N)C(=O)N[C@H](C(=O)N[C@@H](CCCCN)C(=O)N[C@@H](CCCNC(=N)N)C(=O)NCC(=O)N[C@@H](CC(C)C)C(=O)N[C@@H](CCCCN)C(=O)N[C@@H](CC(C)C)C(=O)N[C@@H](CCCNC(=N)N)C(=O)N[C@@H](Cc7c[nH]cn7)C(=O)N[C@H](C(=O)N[C@@H](CCCNC(=N)N)C(=O)N7CCC[C@H]7C(=O)N[C@@H](CCCNC(=N)N)C(=O)N[C@H](C(=O)N[C@H](C(=O)N[C@@H](CCCNC(=N)N)C(=O)N[C@@H](CCSC)C(=O)N[C@@H](CC(=O)O)C(=O)N[C@H](C(=O)O)C(C)C)[C@@H](C)O)C(C)C)C(C)C)C(C)C)C6=O)CC5)CC4)cc13)-c1cc3c(c(=O)n1C2)COC(=O)[C@]3(O)CC", "note": "(single isomer, unassigned) [DPV1047-BCH-SN38]", "values": [
      {"measurement": "Single treatment DPV1047-BCH-SN38 T/C %", "setting": "HT-29 tumors; 12.5 μmol/kg, 5-FU combination experiment", "result": 68, "unit": "%"},
      {"measurement": "Single treatment DPV1047-BCH-SN38 T/C %", "setting": "HT-29 tumors; 12.5 μmol/kg, bevacizumab combination experiment", "result": 77, "unit": "%"},
      {"measurement": "Single treatment DPV1047-BCH-SN38 T/C %", "setting": "HT-29 tumors; 25 μmol/kg, 5-FU combination experiment", "result": 50, "unit": "%"},
      {"measurement": "Single treatment DPV1047-BCH-SN38 T/C %", "setting": "HT-29 tumors; 25 μmol/kg, bevacizumab combination experiment", "result": 69, "unit": "%"},
      {"measurement": "Optimal T/C %", "setting": "[1]; 12.5 μmol/kg", "result": 34.1, "unit": "%"},
      {"measurement": "TGI %", "setting": "[1]; 12.5 μmol/kg", "result": 65.9, "unit": "%"},
      {"measurement": "Optimal T/C %", "setting": "[1]; 25 μmol/kg", "result": 30.1, "unit": "%"},
      {"measurement": "TGI %", "setting": "[1]; 25 μmol/kg", "result": 69.9, "unit": "%"},
      {"measurement": "half-life", "setting": "[2]; time to 50% by mole free SN38 released, read-out: Half life time, Mouse plasma", "result": "< 0.05", "unit": "h"},
      {"measurement": "half-life", "setting": "[2]; monkey", "result": 4.83, "unit": "h"},
      {"measurement": "half-life", "setting": "[2]; rat", "result": 0.233, "unit": "h"},
      {"measurement": "reduction in WBCs", "setting": "[3]; dog, 20 mg/kg", "result": 93, "unit": "%"},
      {"measurement": "clinical signs of toxicity", "setting": "[3]; dog, 30 mg/kg", "result": "clear toxicological signs including diarrhea and a severe hematoxicity"},
      {"measurement": "Reduction in WBC at D5 (%)", "setting": "[3]; dog, 5 mg/kg", "result": "−60", "unit": "%"},
      {"measurement": "Toxic signs Day 1", "setting": "[3]; dog, 5 mg/kg", "result": "None"},
      {"measurement": "Toxic signs Following Days", "setting": "[3]; dog, 5 mg/kg", "result": "None"},
      {"measurement": "Reduction in WBC at D5 (%)", "setting": "[3]; dog, 10 mg/kg", "result": "−50% and −57%"},
      {"measurement": "Toxic signs Day 1", "setting": "[3]; dog, 10 mg/kg", "result": "None"},
      {"measurement": "Toxic signs Following Days", "setting": "[3]; dog, 10 mg/kg", "result": "None"},
      {"measurement": "Reduction in WBC at D5 (%)", "setting": "[3]; dog, 20 mg/kg", "result": "−93", "unit": "%"},
      {"measurement": "Toxic signs Day 1", "setting": "[3]; dog, 20 mg/kg", "result": "None"},
      {"measurement": "Toxic signs Following Days", "setting": "[3]; dog, 20 mg/kg", "result": "Decrease in food"},
      {"measurement": "Reduction in WBC at D5 (%)", "setting": "[3]; dog, 30 mg/kg", "result": "−96", "unit": "%"},
      {"measurement": "Toxic signs Day 1", "setting": "[3]; dog, 30 mg/kg", "result": "None"},
      {"measurement": "Toxic signs Following Days", "setting": "[3]; dog, 30 mg/kg", "result": "Liquid faeces D4"},
      {"measurement": "MTD", "setting": "[3]; dog, in vivo, iv", "result": "~20", "unit": "mg/kg"},
      {"measurement": "clinical signs", "setting": "[3]; dogs, 5 and 10 mg/kg", "result": "no clinical signs"},
      {"measurement": "Minimal T/C (%)", "setting": "[4]; [8]", "result": 43, "unit": "%"},
      {"measurement": "TGI %", "setting": "[4]; [8]", "result": "57*** %"},
      {"measurement": "Optimal T/C %", "setting": "[4]; [9]", "result": 47.2, "unit": "%"},
      {"measurement": "TGI %", "setting": "[4]; [9]", "result": 52.8, "unit": "%"},
      {"measurement": "Optimal T/C %", "setting": "[4]; [10]", "result": 42.8, "unit": "%"},
      {"measurement": "TGI %", "setting": "[4]; [10]", "result": 57.2, "unit": "%"},
      {"measurement": "half life time, times longer than the DPV1047-linker #2-SN38 conjugate", "setting": "[5]; human plasma", "result": 60, "unit": "times"},
      {"measurement": "half-life", "setting": "[5]; DPV1047-linker-SN38, 2.55 μM, citrated plasma, read-out: Half life time, Human plasma", "result": 6.67, "unit": "h"},
      {"measurement": "half-life", "setting": "[5]; Table 10, SN38 conjugates, read-out: Human Plasma Half life time", "result": 6, "unit": "h"},
      {"measurement": "half-life", "setting": "[5]; Table 12, CPP-linker #5-SN38 conjugates incl. D conformation, read-out: Human Plasma Half life time", "result": 6.37, "unit": "h"},
      {"measurement": "pIC50", "setting": "[6]", "result": 7.40},
      {"measurement": "Optimal T/C %", "setting": "[7]; i.v. Q4D × 3, 12.5 μmol/kg", "result": 66.8, "unit": "%"},
      {"measurement": "TGI %", "setting": "[7]; i.v. Q4D × 3, 12.5 μmol/kg", "result": 33.2, "unit": "%"},
      {"measurement": "Optimal T/C %", "setting": "[7]; i.v. Q4D × 3, 25 μmol/kg", "result": 39.2, "unit": "%"},
      {"measurement": "TGI %", "setting": "[7]; i.v. Q4D × 3, 25 μmol/kg", "result": 60.8, "unit": "%"}
    ]}
  ]
}
